Assay results published in US20230272055A1 (Incyte, published 2023).

T1: human Type 1 mutCALR on Ba/F3 cells expressing MPL and Type 1 mutCALR (human)
T1 chain: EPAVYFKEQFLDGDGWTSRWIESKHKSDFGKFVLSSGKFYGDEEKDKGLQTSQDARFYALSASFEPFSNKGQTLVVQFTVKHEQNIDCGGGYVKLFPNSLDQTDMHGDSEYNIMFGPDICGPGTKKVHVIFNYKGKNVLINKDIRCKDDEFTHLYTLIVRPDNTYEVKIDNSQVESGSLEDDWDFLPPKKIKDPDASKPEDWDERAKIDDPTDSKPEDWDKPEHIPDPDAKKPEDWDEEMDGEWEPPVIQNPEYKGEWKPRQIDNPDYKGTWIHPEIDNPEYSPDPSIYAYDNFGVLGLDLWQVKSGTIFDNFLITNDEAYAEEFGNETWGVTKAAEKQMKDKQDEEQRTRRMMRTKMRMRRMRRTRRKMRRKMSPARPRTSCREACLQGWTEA

T2: human mutCALR on BaF3 cells stably expressing human MPL and human mutCALR (MPL-mutCALR cells) (human)
T2 construct: also called mutant calreticulin
T2 chain: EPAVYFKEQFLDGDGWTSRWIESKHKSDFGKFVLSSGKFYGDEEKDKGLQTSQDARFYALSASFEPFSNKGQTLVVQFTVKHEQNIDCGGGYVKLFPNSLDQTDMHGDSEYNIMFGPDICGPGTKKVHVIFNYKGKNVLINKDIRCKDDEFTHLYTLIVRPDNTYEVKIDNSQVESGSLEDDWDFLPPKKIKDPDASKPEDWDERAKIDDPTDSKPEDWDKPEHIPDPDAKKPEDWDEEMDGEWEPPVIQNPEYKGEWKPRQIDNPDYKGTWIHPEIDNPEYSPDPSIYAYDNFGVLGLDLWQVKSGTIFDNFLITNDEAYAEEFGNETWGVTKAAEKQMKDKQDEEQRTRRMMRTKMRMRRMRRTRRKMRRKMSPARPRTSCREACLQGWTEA


Key:
[1] = molecular target: T1, human Type 1 mutCALR on Ba/F3 cells …; experiment: cell-based or functional assay
[2] = molecular target: T2, human mutCALR on BaF3 cells stably …; experiment: flow cytometry, BaF3 MPL-mutCALR cells
Procedure: On the day of the assay, cells were washed and resuspended in assay buffer. Approximately 200,000 cells/well were added to 96-well plates and stained with the indicated concentration of antibodies for 30 minutes on ice. Cells were then washed and stained with goat anti-human secondary conjugated to R-phycoerythrin (R-PE) (Jackson Immuno Research Laboratories) for 30 minutes on ice. The cells were then washed and analyzed by flow cytometry.

Binder	IC50, inhibition of pSTAT5 [1]	MPL-mutCALR AUC [2]	EC50 [2]
anti-mutCALR antibody clone 10 (antibody, human IgG1, lambda, V domains shown, human IgG1) VH: EVQLVQSGAEVKKPGASVKVSCKVSGYTLTELSMQWVRQAPGKGLEWMGGFDPDDGETMYAEKFQGRLTVTEDTSTDTVYMELRSLTSEDTALYFCATSPGYDFFDYWGQGTLVTVSS VL: SYELTQPPSVSVAPGQTARIPCGGNNIGSEGVHWYQQKPGQAPVLVVYDDSDRPSGIPERFSGSNSGNTATLTISRVEAGDEADYYCQVWDSSNDLLIFGGGTKLTVLG	0.055 µg/mL	72100	
anti-mutCALR antibody clone 28 (antibody, human IgG1, lambda, V domains shown, human IgG1) VH: EVQLVQSGAEVKKPGASVKVSCKVSGYTLTELSMQWVRQAPGKGLEWMGGFDPDDGETMYAEKFQGRLTVTEDTSTDTVYMELRSLTSEDTALYFCATSPGYDFFDYWGQGTLVTVSS VL: SYELTQPPSVSVAPGQTARITCGGNNIGSKSVHWYQQKPGQAPVLVVYDDSDRPSGIPERFSGSNSGNTATLTISRVEAGDEADYYCQVWDADSDQLIFGGGTKLTVLG	0.193 µg/mL	60400	4.15 µg/mL
anti-mutCALR antibody clone 15 (antibody, human IgG1, lambda, human IgG1) heavy: not shown light: SYELTQPPSVSVAPGKTARITCGGDNIGSKSVHWYQQKPGQAPVLVVYDDSDRPSGIPERFSGSNSGNTATLTINRVEAGDEADYYCQVWDSSNDLLIFGGGTKLTVLGQPKAAPSVTLFPPSSEELQANKATLVCLISDFYPGAVTVAWKADSSPVKAGVETTTPSKQSNNKYAASSYLSLTPEQWKSHRSYSCQVTHEGSTVEKTVAPTECS	0.041 µg/mL	87600	
anti-mutCALR antibody clone 12 (antibody, human IgG1, lambda, V domains shown, human IgG1) VH: EVQLVQSGAEVKKPGASVKVSCKVSGYTLTELSMQWVRQAPGKGLEWMGGFDPDGGETMYAEKFQGRLTVTEDTSTDTVYMELRSLTSEDTALYFCATSPGYDFFDYWGQGTLVTVSS VL: SYVLTQPPSVSVAPGQTARVSCGGNNIGSKSVNWYRQKPGQAPVLVIYDDSDRPSGIPERFSGSNSGNTATLTINRVEAGDEADYYCQVWDSSNDLLIFGGGTKLTVLG	0.061 µg/mL	61000	0.02 µg/mL
anti-mutCALR antibody clone 20 (antibody, human IgG1, lambda, V domains shown, human IgG1) VH: EVQLVQSGAEVKKPGASVKVSCKVSGYTLTELSMQWVRQAPGKGLEWMGGFDPDDGETMYAEKFQGRLTVTEDTSTDTVYMELRSLTSEDTALYFCATSPGYDFFDYWGQGTLVTVSS VL: SYVLTQPPSVSVAPGKTARITCGGNNIGSKGVHWYQQKPGQAPVLVVYDDSDRPSGIPERFSGSNSGNTATLTINRVEAGDEADYYCQVWDSSNDLLIFGGGTKLTVLG	0.018 µg/mL	92700	
anti-mutCALR antibody clone 24 (antibody, human IgG1, lambda, V domains shown, human IgG1) VH: EVQLVQSGAEVKKPGASVKVSCKVSGYTLTELSMQWVRQAPGKGLEWMGGFDPDDGETMYAEKLQGRLTVTEDTSTDTVYMELRSLTSEDTALYFCATSPGYDFFDYWGQGTLVTVSS VL: SYVLTQPPSVSVAPGKTARITCGGNNIGSKSVHWYQQKPGQAPVLVVYDDSDRPSGIPERFSGSNSGNTATLTINRVEAGDEADYYCQVWDSSNDLLIFGGGTKLTVLG	0.031 µg/mL	67800	29.3 µg/mL
anti-mutCALR antibody clone 19 (antibody, human IgG1, lambda, V domains shown) VH: EVQLVQSGAEVKKPGASVKVSCKVSGYTLTELSMQWVRQAPGKGLEWMGGFDPDDGETMYAEKFQGRLTVTEDTPTDTVYMELRSLTSEDTALYFCATSPGYDFFDYWGQGTLVTVSS VL: SYVLTQPLSVSVALGQTARITCGGSNIGDIRVHWYQQKPGQAPVLVVYDDSDRPSGIPERFSGSNSGNTATLTINRVEAGDEADYYCQVWDSSNDLLIFGGGTKLTVLG	0.062 µg/mL	91600	
anti-mutCALR antibody clone 22 (antibody, human IgG1, lambda, V domains shown, human IgG1) VH: EVQLVQSGAEVKKPGASVKVSCKVSGYTLTELSMQWVRQAPGKGLEWMGGFDPDDGETMYAEKFQGRLTVTEDTSTDTVYMELRSLTSEDTALYFCATSPGYDFFDYWGQGTLVTVSS VL: SYVLTQPPSVSVAPGKTARITCGGNNIGSKNVHWYQQKPGQAPVLVVYDDSDRPSGIPERFSGSNSGNTATLTINRVEAGDEADYYCQVWDSSNDLLIFGGGTKLTVLG	0.035 µg/mL	124000	
anti-mutCALR antibody clone 17 (antibody, human IgG1, lambda, human IgG1) heavy: not shown light: SYVLTQPPSVSVAPGQTARITCGGSDIGDEIVHWYQQKPGQAPVLVVYDDSDRPSGIPERFSGSNSGNTATLTISRAQAGDEADYYCQVWDSSSDHLIFGGGTKLTVLGQPKAAPSVTLFPPSSEELQANKATLVCLISDFYPGAVTVAWKADSSPVKAGVETTTPSKQSNNKYAASSYLSLTPEQWKSHRSYSCQVTHEGSTVEKTVAPTECS	0.031 µg/mL	72700	
anti-mutCALR antibody clone 13 (antibody, human IgG1, lambda, V domains shown, human IgG1) VH: QVQLVQSGAEVKKPGASVKVSCKVSGYTLTELSMQWVRQAPGKGLEWMGGFDPDDGETMYAEKFQGRLTVTEDTSTDTVYMELRSLTSEDTALYFCATSPGYDFFDYWGQGTLVTVSS VL: not shown	0.091 µg/mL	57700	0.04 µg/mL
anti-mutCALR antibody clone 16 (antibody, human IgG1, lambda, V domains shown, human IgG1) VH: EVQLVQSGAEVKKPGASVKVSCKVSGYTLTELSMQWVRQAPGKGLEWMGGFDPDDGETMYAEKFQGRLTVTEDTSTDTVYMELRSLTSEDTALYFCATSPGYDFFDYWGQGTLVTVSS VL: SYVLTQPPSVSVAPGKTARITCGGNNTGSKSVHWYQQKPGQAPVLVVYDDSDRPSGIPERFSGSNSGNTATLTINRVEAGDEADYYCQVWDSSNDLLIFGGGTKLTVLG	0.028 µg/mL	63200	0.04 µg/mL
anti-mutCALR antibody clone 27 (antibody, human IgG1, lambda, V domains shown, human IgG1) VH: EVQLVQSGAEVKKPGASVKVSCKVSGYTLTELSMQWVRQAPGKGLEWMGGFDPDDGETMYAEKFQGRLTVTEDTSTDTVYMELRSLTSEDTALYFCATSPGYDFFDYWGQGTLVTVSS VL: SYVLTQPPSVSVAPGQTARITCGGNNIGIKSVHWYQQKPGQAPVLVVYDDRDRPSGIPERFSGSNSGNTATLTINRVEAGDEADYYCQVWDSSNDLLIFGGGTKLTVLG	0.037 µg/mL	55200	
anti-mutCALR antibody clone 26 (antibody, human IgG1, lambda, V domains shown, human IgG1) VH: EVQLVQSGAEVKKPGASVKVSCKVSGYTLTELSMQWVRQAPGKGLEWMGGFDPDDGETMYAEKFQGRLTVTEDTSTDTVYMELRSLTSEDTALYFCATSPGYDFFDYWGQGTLVTVSS VL: SYVLTQPPSVSVAPGQTARITCGGNNIGSKSVHWYQQKPGQAPVLVVYDDSDRPSGIPERFSGSNSGNTATLTISRVEAGDEADYYCQVWDSSIDHLIFGGGTKVTVLG	0.125 µg/mL	41500	0.42 µg/mL
anti-mutCALR antibody clone 18 (antibody, human IgG1, lambda, V domains shown, human IgG1) VH: EVQLVQSGAEVKKPGASVKVSCKVSGYTLTELSMQWVRQAPGKGLEWMGGFDPDDGETMYAEKFQGRLTVTEDTSTDTVYMELRSLTSEDTALYFCATSPGYDFFDYWGQGTLVTVSS VL: SYVLTQPPSVSVAPGKTARITCGGNNIGSKSVHWYQQKPGQAPVLVVYDDSDRPLGIPERFSGSNSGNTATLTINRVEAGDEADYYCQVWDSSNDLLIFGGGTKLTVLG	0.036 µg/mL	91900	
anti-mutCALR antibody clone 21 (antibody, human IgG1, lambda, V domains shown, human IgG1) VH: EVQLVQSGAEVKKPGASVKVSCEVSGYTLTELSMQWVRQAPGKGLEWMGGFDPDDGETMYAEKFQGRLTVTEDTSTDTVYMELRSLTSEDTALYFCATSPGYDFFDYWGQGTLVTVSS VL: SYVLTQPPSVSVAPGQTARVSCGGNNIGSKSVNWYRQKPGQAPVLVIYDDSDRPSGIPERFSGSNSGNTATLTISRVEAGDEADYYCQVWDSSNDLLIFGGGTKLTVLG	0.032 µg/mL	70100	0.7 µg/mL
anti-mutCALR antibody clone 23 (antibody, human IgG1, lambda, V domains shown, human IgG1) VH: EVQLVQSGAEVKKPGASVKVSCKVSGYTLTELSMQWVRQAPGKGLEWMGGFDPDDGETMYAEKFQGRLTVTEDTSTDTVYMELRSLTSEDTALYFCATSPGYDFFDYWGQGTLVTVSS VL: SYVLTQPPSVSVAPGQTARITCGGNNIGIKSVHWYQQKPGQAPVLVVYDDSDRPSGIPERFSGSNSGNTATLTINRVEAGDEADYYCQVWDSSNDLLIFGGGTKLTVLG	0.03 µg/mL	65900	
anti-mutCALR antibody clone 25 (antibody, human IgG1, lambda, V domains shown, human IgG1) VH: EVQLVQSGAEVKKPGASVKVSCKVSGYTLTELSMQWVRQAPGKGLEWMGGFDPDDGETMYAEKFQGRLTVTEDTSTDTVYMELRSLTSEDTALYFCATSPGYDFFDYWGQGTLVTVSS VL: SYELTQPPSVAVAPGQTARITCGGNNIGRKAVHWYQQKPGQAPVLVVYDDSDRPSGIPERFSGSNSGNTATLTINRVEAGDEADYYCQVWDSSNDLLIFGGGTKLTVLG	0.024 µg/mL	65200	77.3 µg/mL
